Data published in patent US20080056998A1, “COMPOSITION AND PROCESSES FOR CROSSING THE BLOOD-BRAIN BARRIER WITH POLYPEPTIDES FOR IN VIVO NEUROIMAGING” (The General Hospital Corporation, priority 2006, published 2008).

Legend:
[1] = HPLC study of perfused brain homogenate; assay type: in vivo, mouse; details: brain perfused 24 hours after intravenous injection
Description: In a further exemplary embodiment of the present invention, the mouse brains can be perfused for 24 hours after injection of the delivery module in order to remove intravascular contents. The brain homogenates can then be subjected to exemplary High-Powered Liquid Chromatography (“HPLC”) analysis.
According to an exemplary embodiment of the present invention, n mice (n=4 for example) can be injected intravenously with the delivery module. The mouse brain uptake of the compound can be detected by HPLC after in situ brain perfusion. A perfused brain can be soaked in a HPLC mobile phase solution for 15 minutes and homogenized on ice using a mechanical homogenizer, such as that which is marketed by Virtis in Gardiner, N.Y. A resulting brain residue can be filtered using, for example, 0.45 Am Whatman Nylon filters, lyophilized, and analyzed by 2D-HPLC, such as that whish is marketed by Lachrome Elite, Hitachi in San Jose, Calif. […] In addition, the detected peak can be correlated and matched with the absorbance spectrum profile of Cy5.5 dye. […] Furthermore, the absorbance profile of this peak can correspond to the absorbance profile of Cy5.5 dye at approximately 670 nm 702.
Upon switching the detection wavelength to 220 nm, the retention time peak at 32 min can be detected along with other more polar peaks, such as those associated with brain metabolites.

brain endothelium = test: dual-channel confocal microscopy of brain endothelium; assay type: in vivo; details: intravenous, about 2.5 nmol; sacrificed 1, 3 or 6 hours after injection
Description: Further, fluorescence confocal microscopy techniques/systems can be employed to investigate a delivery route of the delivery module after injection. For example, mammals can be injected intravenously with about 2.5 nmol of the exemplary delivery module MPAPCy5.5, perfused, and sacrificed 1, 3 or 6 hours after injection. Brain sections from the sacrificed animals may be frozen. The frozen brain sections can then be stained with, for example, anti-CD31 antibodies followed by FITC-conjugated secondary antibody as described above. Dual-channel confocal microscopy can be performed, for example, in the FITC and Cy5.5 channels. Further, confocal microscopy can be performed using, for example, an Axiovert 200 M inverted microscope (from, e.g., Carl Zeiss, Inc. Thornwood, N.Y.), equipped with an LSM Pascal Vario RGB Laser Module (Arg 458/488/514 nm, HeNe 543 nm, HeNe 633 nm). An exemplary confocal images with a slice thickness of, for example, <0.9 Am can be acquired to produce, for example, FITC and Cy5.5 staining as well as Nomarski optics. Exemplary summation projection of all background-corrected confocal slices can be produced using, for example, LSM 5 Pascal Software. Further, the exemplary confocal images can be color-coded with, for example, green for FITC and red for Cy5.5. […]

[2] = tested on: neurons, astrocytes, and endothelial cells; test: dual-channel fluorescence microscopy of stained brain sections; assay type: in vivo, mouse
Excerpt: When the exemplary MPAP-Cy5.5 delivery module penetrates the BBB, exemplary dual-channel fluorescence microscopy can be used to observe whether the distribution of the exemplary MPAP-Cy5.5 delivery module in the exemplary brain forms in a cell-type-specific manner. In a further exemplary embodiment of the present invention, an exemplary distribution of the exemplary MPAP-Cy5.5 delivery module within different cell types of a brain can be determined with dual-channel fluorescence microscopy. For example, cryopreserved serial brain sections from mice perfused with the MPAP-Cy5.5 delivery module can be stained for neurons, astrocytes, and endothelial cells using anti-neuronal nuclei antibody (such as, for example, NeuN, monoclonal, from Chemicon International, Temecula, Calif.), anti-glial fibrillary acidic protein antibody (such as, for example, GFAP from Chemicon International, Temecula, Calif.), and anti-CD31 (such as, for example PECAM-1 from BD Biosciences Pharmingen, San Jose, Calif.). The brain sections may be further incubated with corresponding FITC-conjugated secondary antibodies. Further, slides of the brain sections can be mounted in a mounting medium, such as, for example, a Vectashield mounting medium from Vector Laboratories in Burlingame, Calif. Dual-channel fluorescence microscopy in, for example, the Cy5.5 and FITC channels can be performed using, for example, a Nikon Eclipse 50i fluorescence microscope equipped with an appropriate filter set, such as, for example, one provided by Chroma Technology Corporation in Rockingham, Vt. Exemplary images can be acquired using a CCD camera with near-infrared sensitivity (such as, for example, a SPOT 7.4 Slider RTKE from Diagnostic Instruments in Sterling Heights, Mich.).
Although a mechanism for neuronal accumulation remains unclear, it may be possible that preferential targeting into neurons can be related to the higher lypophilicity of neuronal membranes as compared to other cell types. (See, e.g., publications 4 and 6.) Lypophilic peptides may have an advantage to penetrate by adsorptive endocytosis. […] However, some signal may be detectable in the thalamus 904 and the CA3 area of the hippocampus 905.

mouse brain [3] = test: ex vivo NIR fluorescence imaging of removed brains and coronal brain slices; assay type: in vivo; details: for ex vivo NIR fluorescent signal of removed brain: 24 hours after injection
Description: In another exemplary embodiment of the present invention, fluorescence signals may be observed using exemplary ex vivo imaging performed on the exemplary mouse brains post injection of the exemplary delivery module. Exemplary Ex vivo NIR fluorescence imaging can be performed, e.g., 24 hours after the injection of the exemplary MPAP-Cy5.5 delivery module. Upon sacrificing the mice, each mouse brain can be removed, placed into the exemplary imaging system, and imaged as described above.
Additional observations regarding accumulation of the exemplary delivery module in the brain can be obtained after imaging 1 mm-thick coronal brain slices from the exemplary mouse brain. The exemplary mouse brain can be cut into 1 mm coronal brain sections using a slicing apparatus, such as the RBM-2000C provided by Analytical Scientific Instruments, taken at the following exemplary anteroposterior coordinates from bregma, e.g.: +1.1 mm, +0.1 mm, −0.9 mm, −1.9 mm. Referring to FIG. 6, the exemplary brain slices can then be placed into the exemplary imaging system and imaged 600 as described above.

mouse brain [4] = test: in vivo NIR fluorescence imaging after intravenous injection; details: mice; for crossing of the BBB / accumulation in the brain: MPAP-Cy5.5 at about 24 hours post-injection, Cy5.5 at any point in time; for NIR fluorescent signal in the brain in vivo: imaging 15 min to 44 hours
Description: In the exemplary embodiment of the present invention, for in vivo optical imaging, n mice can be injected intravenously with about 2.5 nmol of the exemplary delivery module MPAP-Cy5.5, Cy5.5 alone, or saline solution. In an exemplary embodiment of the present invention, n=4 for each group of solutions for a total of 12 mice. Imaging can be performed at various times after injection. For example, it may be performed about 15 and 30 minutes after injection, as well as 1, 2, 3, 6, 24 and 44 hours after injection. For exemplary NIR fluorescent imaging, the mice can be placed into an imaging system, for example a Kodak Imaging Station IS2000MM, equipped with a band-pass filter at about 630 nm and a long pass filter at about 700 nm, such as the Chroma Technology Corporation. Exemplary images can be captured with e.g., charge-coupled device (“CCD”) camera embedded in the imaging system and exemplary analyses may be performed using Kodak ID3.6.3 imaging software.
Initially, after an exemplary intravenous injection of the delivery module into an mammal, such as a mouse, there may be no defined fluorescent signal in the brain for a few hours. […] An increase in the emitted light can occur 24 hours after injection 202, and the signal can continue to accumulate up to approximately 2 days or more 203.

Substance | degradation in systemic circulation (intact compound in brain homogenate by HPLC) [1] | time after injection to pass through the endothelium (brain endothelium) | accumulation in astrocytes ([2]; GFAP staining) | accumulation in neurons ([2]; NeuN staining) | localization in endothelial cells ([2]; anti-CD31 staining) | distribution over brain regions ([2]; cortex, hippocampus, thalamus) | subcellular localization in neurons ([2]; mouse, in vivo) | ex vivo NIR fluorescent signal of removed brain (mouse brain [3]) | distribution in 1 mm coronal brain slices (mouse brain [3]; slices at +1.1, +0.1, −0.9, −1.9 mm from bregma) | crossing of the BBB / accumulation in the brain (mouse brain [4]) | time post-injection at which NIR fluorescent signal is detected in the brain (head summit) (mouse brain [4]; about 2.5 nmol) | time up to which the brain signal continues to accumulate (mouse brain [4]; about 2.5 nmol) | NIR fluorescent signal in the brain in vivo (mouse brain [4]; about 2.5 nmol) | accumulation in peripheral tissues / mouse body (mouse brain [4]; kidneys and spleen)
C14-βAla-(Arg)7-Cys(Cy5.5)-NH2 [MPAP-Cy5.5] | may likely not degrade in systemic circulation | ≤ 1 h | may not show widespread accumulation | primarily accumulate in neurons | no significant localization | detected in almost all regions of the brain | predominantly localized within the cell cytoplasm | strong NIR fluorescent signal | distributed randomly throughout the brain parenchyma | crossed the BBB and accumulate within the mouse brain | 6 h | ≥ 2 days | progressively increasing NIR fluorescent signal | accumulation of the delivery module in peripheral tissues
Cy5.5 [reference compound] | – | – | – | – | – | – | – | no significant signal beyond background levels | – | no accumulation in the brain | – | – | no signal appears | –
